Measurements: patent US20240415919A1, “COMPOSITIONS AND METHODS FOR TREATMENT OF AUTOIMMUNE DISORDERS AND CANCER” (Dana-Farber Cancer Institute, Inc., priority 2021, published 2024)

How the values were obtained:
[1] = biological target: Ly49F (mouse) (UniProt Q60653); experiment: cell-based or functional assay
[2] = test system: Balb/C heart allografts; experiment: Balb/C heart transplantation into skin-sensitized B6 hosts after peptide vaccination; details: immunized hosts, FIG. 11B
[3] = test system: FL9.2 T cells; experiment: FL9 peptide immunization of hosts adoptively transferred with FL9.2 T cells; type: in vivo, mouse
Method: CD45.1+B6 hosts were adoptively transferred with FL9.2 T cells and immunized i.p. with FL9 in CFA or no peptide (CFA alone) on day 0. Three days later, activation (CD69) proliferation of FL9.2 T cells (Ki67) was measured.
(§1) CD45.1^+ B6 or TCRα^−/− mice were transferred with CFSE labelled 2×10^6 FL9.2 Tg T cells followed by i.p. immunization with 100 μg FL9 or FL9-68 peptides in CFA. Proliferation and activation of FL9.2 Tg T cells in the adoptive hosts were analzyed by assessing CFSE dilution, Ki67 and CD69 expression at day 3 and 6 after transfer.
as §1, with “CD45.1^+B6” for “CD45.1^+ B6”

[4] = biological target: T1, FL9-68, synthetic superagonist variant of the FL9 self-peptide (P to L at position 7) peptide on Qa-1b (mouse); experiment: activation reporter or marker
T1 peptide: FYAEATLML

[5] = biological target: T2, FL9 self-peptide (source protein not named) peptide on Qa-1b (mouse); experiment: multimer staining
T2 peptide: FYAEATPML

[6] = biological target: T3, Hsp60 (Hsp60p216) peptide on Qa-1b (mouse); experiment: multimer staining
T3 peptide: GMKFDRGYI

[7] = biological target: T2, FL9 self-peptide (source protein not …); experiment: Kd or kinetics

Chain of Ly49F (mouse) (Q60653 whole entry): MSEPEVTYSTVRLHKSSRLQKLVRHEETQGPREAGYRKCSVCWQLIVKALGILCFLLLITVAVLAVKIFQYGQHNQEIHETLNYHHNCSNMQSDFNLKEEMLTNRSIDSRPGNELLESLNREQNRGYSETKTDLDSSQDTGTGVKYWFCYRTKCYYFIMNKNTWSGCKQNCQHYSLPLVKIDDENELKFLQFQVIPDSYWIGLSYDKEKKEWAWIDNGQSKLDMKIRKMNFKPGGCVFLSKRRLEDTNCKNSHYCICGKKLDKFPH

Chimeric anti-Ly49F Ab (HBF-719 with mIgG2a Fc) (antibody)
depletion of Ly49F+ CD8 Treg in spleen, lymphocytes and blood [1]: > 95%

FYAEATPML [FL9, Qa-1-associated self-peptide, reference compound]
expansion of FL9-Qa-1 tetramer binding CD8 Treg (CD44+CD122+Ly49+CD8+T) [2]: 8 fold | in vivo activation/proliferation of transferred FL9 TCR+ CD8 T cells ([3]; i.p. immunization with peptide in CFA, CD45.1+ B6 or TCRα-/- hosts): no in vivo stimulation of FL9.2 T cells | expansion of CD8 Treg after immunization ([3]; immunization of mice with the self-peptide): did not elicit detectable expansion of CD8 Treg

B1: FL9.2 TCR (TCR, V domains shown)
Valpha: AQSVTQPDARVTVSEGASLQLRCKYSYFGTPYLFWYVQYPRQGLQLLLKYYPGDPVVQGVNGFEAEFSKSNSSFHLRKASVHWSDWAVYFCAVRANTGKLTFGDGTVLTVKP
Vbeta: DSGVVQSPRHIIKEKGGRSVLTCIPISGHSNVVWYQQTLGKELKFLIQHYEKVERDKGFLPSRFSVQQFDDYHSEMNMSALELEDSAMYFCASSPRLASAETLYFGSGTRLTVL
binding result [4]: recognises

B2: FL9.5 (TCR, V domains shown)
Valpha: AQSVTQPDARVTVSEGASLQLRCKYSYFGTPYLFWYVQYPRQGLQLLLKYYPGDPVVQGVNGFEAEFSKSNSSFHLRKASVHWSDWAVYFCAVKGGNYKPTFGKGTSLVVHP
Vbeta: NSGVVQSPRYIIKGKGERSILKCIPISGHLSVAWYQQTQGQELKFFIQHYDKMERDKGNLPSRFSVQQFDDYHSEMNMSALELEDSAVYFCASSLTGAYEQYFGPGTRLTVL
binding result [5]: recognises

B3: FL9.43 (TCR, V domains shown)
Valpha: AQSVTQPDARVTVSEGASLQLRCKYSYFGTPYLFWYVQYPRQGLQLLLKYYPGDPVVQGVNGFEAEFSKSNSSFHLRKASVHWSDWAVYFCAVKSTGSKLSFGKGAKLTVSP
Vbeta: NSGVVQSPRYIIKGKGERSILKCIPISGHLSVAWYQQTQGQELKFFIQHYDKMERDKGNLPSRFSVQQFDDYHSEMNMSALELEDSAVYFCASSPRLGSAETLYFGSGTRLTVL
binding result [5]: recognises

B4: FL9.30 (TCR, V domains shown)
Valpha: AQSVTQPDARVTVSEGASLQLRCKYSYFGTPYLFWYVQYPRQGLQLLLKYYPGDPVVQGVNGFEAEFSKSNSSFHLRKASVHWSDWAVYFCAVSSNNAGAKLTFGGGTRLTVRP
Vbeta: DSGVVQSPRHIIKEKGGRSVLTCIPISGHSNVVWYQQTLGKELKFLIQHYEKVERDKGFLPSRFSVQQFDDYHSEMNMSALELEDSAMYFCASSRRPASAETLYFGSGTRLTVL
binding result [5]: recognises

B5: FL9.38 (TCR, V domains shown)
Valpha: QQKVQQSPESLSVPEGGMASLNCTSSDRNFQYFWWYRQHSGEGPKALMSIFSDGDKKEGRFTAHLNKASLHVSLHIRDSQPSDSALYFCALSESSGSWQLIFGSGTQLTVMP
Vbeta: EAAVTQSPRSKVAVTGGKVTLSCHQTNNHDYMYWYRQDTGHGLRLIHYSYVADSTEKGDIPDGYKASRPSQENFSLILELASLSQTAVYFCASRDRGDQNTLYFGAGTRLSVL
binding result [5]: no recognition

B6: FL9.26 (TCR, V domains shown)
Valpha: AQSVTQPDARVTVSEGASLQLRCKYSYFGTPYLFWYVQYPRQGLQLLLKYYPGDPVVQGVNGFEAEFSKSNSSFHLRKASVHWSDWAVYFCAVSTGGYKVVFGSGTRLLVSP
Vbeta: NSGVVQSPRYIIKGKGERSILKCIPISGHLSVAWYQQTQGQELKFFIQHYDKMERDKGNLPSRFSVQQFDDYHSEMNMSALELEDSAVYFCASSHRSFSGNTLYFGEGSRLIVV
binding result [5]: recognises

B7: FL9.8 TCR (TCR, V domains shown)
Valpha: AQSVTQPDARVTVSEGASLQLRCKYSYFGTPYLFWYVQYPRQGLQLLLKYYPGDPVVQGVNGFEAEFSKSNSSFHLRKASVHWSDWAVYFCAVRANYAQGLTFGLGTRVSVFP
Vbeta: NSGVVQSPRYIIKGKGERSILKCIPISGHLSVAWYQQTQGQELKFFIQHYDKMERDKGNLPSRFSVQQFDDYHSEMNMSALELEDSAVYFCASSLLGGPSAETLYFGSGTRLTVL
binding result [4]: recognises | binding result [6]: no recognition | binding result [7]: recognises

B8: FL9.34 (TCR, V domains shown)
Valpha: AQSVTQPDARVTVSEGASLQLRCKYSYFGTPYLFWYVQYPRQGLQLLLKYYPGDPVVQGVNGFEAEFSKSNSSFHLRKASVHWSDWAVYFCAVRGQGGRALIFGTGTTVSVSP
Vbeta: NSGVVQSPRYIIKGKGERSILKCIPISGHLSVAWYQQTQGQELKFFIQHYDKMERDKGNLPSRFSVQQFDDYHSEMNMSALELEDSAVYFCASSPGPSQNTLYFGAGTRLSVL
binding result [5]: recognises

B9: FL9.31 (TCR, V domains shown)
Valpha: AQSVTQPDARVTVSEGASLQLRCKYSYFGTPYLFWYVQYPRQGLQLLLKYYPGDPVVQGVNGFEAEFSKSNSSFHLRKASVHWSDWAVYFCAVKDSGYNKLTFGKGTVLLVSP
Vbeta: NSGVVQSPRYIIKGKGERSILKCIPISGHLSVAWYQQTQGQELKFFIQHYDKMERDKGNLPSRFSVQQFDDYHSEMNMSALELEDSAVYFCASSLAGREQYFGPGTRLTVL
binding result [5]: recognises

B10: FL9.41 (TCR, V domains shown)
Valpha: AQSVTQPDARVTVSEGASLQLRCKYSYFGTPYLFWYVQYPRQGLQLLLKYYPGDPVVQGVNGFEAEFSKSNSSFHLRKASVHWSDWAVYFCAVSIWATSSGQKLVFGQGTILKVYL
Vbeta: VTLLEQNPRWRLVPRGQAVNLRCILKNSQYPWMSWYQQDLQKQLQWLFTLRSPGDKEVKSLPGADYLATRVTDTELRLQVANMSQGRTLYCTCSARQGSGNTLYFGEGSRLIVV
binding result [5]: recognises

B11: FL9.15 (TCR, V domains shown)
Valpha: GDSVTQTEGPVTVSESESLIINCTYSATSIAYPNLFWYVRYPGEGLQLLLKVITAGQKGSSRGFEATYNKETTSFHLQKASVQESDSAVYYCALGEASSGSWQLIFGSGTQLTVMP
Vbeta: DSGVVQSPRHIIKEKGGRSVLTCIPISGHSNVVWYQQTLGKELKFLIQHYEKVERDKGFLPSRFSVQQFDDYHSEMNMSALELEDSAMYFCASSLGQGNYAEQFFGPGTRLTVL
binding result [5]: no recognition

B12: FL9.40 (TCR, V domains shown)
Valpha: AQSVTQPDARVTVSEGASLQLRCKYSYFGTPYLFWYVQYPRQGLQLLLKYYPGDPVVQGVNGFEAEFSKSNSSFHLRKASVHWSDWAVYFCAVTRYGSSGNKLIFGIGTLLSVKP
Vbeta: DSGVVQSPRHIIKEKGGRSVLTCIPISGHSNVVWYQQTLGKELKFLIQHYEKVERDKGFLPSRFSVQQFDDYHSEMNMSALELEDSAMYFCASSPRLGSAETLYFGSGTRLTVL
binding result [5]: recognises

B13: FL9.35 (TCR, V domains shown)
Valpha: AQSVTQPDARVTVSEGASLQLRCKYSYFGTPYLFWYVQYPRQGLQLLLKYYPGDPVVQGVNGFEAEFSKSNSSFHLRKASVHWSDWAVYFCAVSMMGYKLTFGTGTSLLVDP
Vbeta: DSGVVQSPRHIIKEKGGRSVLTCIPISGHSNVVWYQQTLGKELKFLIQHYEKVERDKGFLPSRFSVQQFDDYHSEMNMSALELEDSAMYFCASSRTGGSAETLYFGSGTRLTVL
binding result [5]: recognises
